B1: ADI-41287 (antibody, V domains shown)
VH: EVQLVESGGGLVQPGRSLRLSCAASGFTFDDYAMHWVRQAPGKGLEWVSSISWHSADIGYAASVEGRFTISRDNAKNSLFLQMNSLRPEDTALYYCAKEIVSTSWYSGYFQDWGQGTLVTVSS
VL: QPVLTQPRSVSGSPGQSVTISCTGTSSDVGDYNYVSWYQQHPGKAPKLMIYDVSKRPSGVPDRFSGSKSGNTASLTISGLQGEDEADYYCCSYAGRHTFVFGTATKVTVL
B2: ADI-41288 (antibody, V domains shown)
VH: EVQLVESGGGLVQPGGSLRLSCAASGFTFSSYAMSWVRQAAGKGLEWVSAISGSGDDTFYADSVKDRFIISRDSSKRKVYLQMNSLRVEDTAVYYCAKTDIMVTFGGVVVDAYYFDHWGQGTLVTVSS
VL: ETTLTQSPGTLSLSPGERATLSCRASQFVFRSYLAWYQQRPGQPPRLLIYGASSRATGIPDRFSGRGSGTEFTLTISRLEPEDFAMYYCQHYDSSPPGTFGGGTKVEIK
B3: ADI-41289 (antibody, V domains shown)
VH: EVQLVQSGAEVKKPGESLKISCKGSGYSFSSFWIGWVRQMPGKGLEWMGIIYPGDSDTRYSPSFQGQVTISADQSIRTAYLQWNSLKASDTGLYYCAKGGLGDVEMATIAVWGQGTLVTVSS
VL: QSVLIQPASVSGSPGQSITIPCTGTSSDVGSYNLVSWYQHHPGKAPKLIISEGSKRPLGVSNRFSGSKSGNTASLTISGLQAEDEADYYCSSYVRSRTFNYVFGTGTKLTVL
B4: ADI-41291 (antibody, V domains shown)
VH: QVQLQQWGAGLLKPSETLSLTCVVYGESFSDSGYYWTWIRQPPEKGLEWIGEINHGGSTSYNPSLKSRVTISVDTSENQFSLKVTSVTGADTAVYYCARLRLGCSGGSCYSRFDYWGQGTLVTVSS
VL: DIQLTQSPSSLSASVGDRVTITCRASQSINSYLNWYQQKPGKAPVLLIHAASSLQGGVPSRFSGSGSGTDFTLTISSLQPEDFATYYCQQSYNTRWTFGHGTKVDIK
B5: ADI-41292 (antibody, V domains shown)
VH: EVQLLESGGGVVQPGRSLRLSCAASGFSFSSYGIHWVRQAPGKGLECVALMSYDGSEKYYADSVKGRFTISRDNSKNTLYLHMNSLRREDTAVYYCAKGSHLRWSHLDYYFHLWGRGTLVTVSS
VL: DIVMTQSPSTLSASVGDRVTITCRASQSLSTWLAWYQQKPGKAPKLLISDASNLESGVPSRFSGRGSGTEFTLTISGLQPDDFATYYCQQERTFGQGTKVDIK
B6: ADI-41293 (antibody, V domains shown)
VH: QVQLQQSGPGLAKPSQTLSLTCTVSGGPISGVDYYWSWIRQPPGKGLEWIGYIYYSGSTYYNPSLKSRVTISVDTSKKQFSLKMSSVTAADTAVYYCARDVGATPYYYYGMDVWGQGTTVTVSS
VL: DIVLTQSPDTLSLSPGERATLSCRASQSVRSNYLAWYQHKPGQAPRLLIYGASSRVAGIPDRFSGSGSGTDFTLTISRLEPEDFAVYYCQQYGSSPPSVTFGGGTKVEIK
B7: ADI-41294 (antibody, V domains shown)
VH: EVQLLESGGGLVQPGGSLRLSCAASGFTFSAYEMNWVRQAPGKGLEWVSYISSSGSNKHYADSVKGRFTISRDNAKNSLHLHMNSLRAEDTALYYCTRPHQEEWELLPNDAFDLWGQGTMVTVSS
VL: QSALTQPPSASGSPGQSVTISCTGTSTDVGAYTYVSWYQQHPGKAPKLIIYEVYKRPSGVPNRFFGSKSGNTASLTVSGLQAEDEADYYCSSYGGSNNFGLFGGGTKLIVL
B8: ADI-41296 (antibody, V domains shown)
VH: EVQLVESGVEVKKPGESLKISCRGSGYTFYNYWIAWVRQKPGKGLEYMGTIYLDDSETIYSPSFQGEVTISADKSINTAYLQWNSLKASDTANYYCARQMDFYFDVWGRGTLVTVSS
VL: SYELMQPPSVSVSPGQTARITCSGDPLPRESAYWYQQKPGQAPVVIIFNDIERPLGIPERFSGSRSGTTVTLTISGAQAEDEADYYCQSADSRKTFVFGTGTKLTVL
B9: ADI-41297 (antibody, V domains shown)
VH: QVQLVQSGAEVKKPGSSVKVSCKASGGTFSTDAISWVRQAPGQGLEWMGGIIPLFGTANYAQKFQGRVTITADESTSTAYMELNSLRSVDTAVYYCGRTGAFDGEVVVRPHLDLWGQGTLVTVSS
VL: QPVLTQPASVSGSPGQSITISCTGTSSDVGGYDYVSWYQHHPGKAPKLMIYEVSNRPSGVSNRFSGSKSGNTASLTISGLQADDEAAYYCSSYTRSNTLLFGGGTKLTVL
B10: ADI-41299 (antibody, V domains shown)
VH: EVQLVESGGGLVHPGRSLRLSCGASGFTFRSFAMHWVRQAPGKGLEWVAVISYDGSDEYYADSVKGRFTISRDNSRNTLFLQMNRLRPEDTAIYYCARAYCSTSNCPVLDYWGQGTLVTVSS
VL: QSVLIQPASVSGSPGQSITISCTGTSSDVGGYSLVSWYQQHPGKAPKLIIFEGNKRPAGVSDRFSGSKYGDTASLTISGLQAEDEADYYCCSYAGGHSVFGGGTKVTVL
B11: ADI-41302 (antibody, V domains shown)
VH: QVQLVESGGGVVQPGRSLRLSCAASGFTFSSYAMQWVRQAPGKGLEWVAVMTNDGDDKYYADSVRGRFTISRDNSKNTLYLQMNNLRPEDTAVYYCARDLFEWWELLGYCYAMDVWGQGTTVTVSS
VL: QSVLTQPPSASGSPGQSVTISCTGTSSDVGAYNYVSWYQQHPGKAPKLIIYEVYKRPSGVPDRFFGSKSGNTASLTVSGLQAEDEADYYCSSYAGSNTLGVFGGGTKVTVL
B12: ADI-41303 (antibody, V domains shown)
VH: QVQLVQSGGGLVRPGGSLRVSCAASGFIFNNYALTWVRQAPGKGLEWVSAISGSGSSTYYADSVKGRFTISRENSNNRLYLQLSGLRAEDTAVYFCARVRGLVWFEGRIDPYPNVFDYWGQGTLVTVSS
VL: DIVLTQSPGTLSLSPGERATLSCRASQSVSNDYLAWYQQKPGQAPRLLIYDASSRAIGIPDRFSGSGSGTDFTLIISRLEPEDFAVYYCHHPGKFGQGTKVEIK
B13: ADI-41304 (antibody, V domains shown)
VH: EVQLVESGPGLVKPSQTLSLTCTVSGGSIRSHDYYWSWIRQPPGKGLEWIGYSYYSGSTYYNPSLKSRVIISLDTSKNQFSLNLTSVTAADTAMYYCARDRPHTSSWIPGWFDPWGQGTLVTVSS
VL: SYELTQPPSASGTPGQRVTISCSGSSSNIGSNTVSWYQQFPGKAPKLLIYSNNERPSGGPDRFSGSKSGTSASLAIGGLQSEDEANYYCAAWDDSLYAVVFGGGTKLTVL
B14: ADI-41305 (antibody, V domains shown)
VH: QVTLKESGPGLVKPSQTLSLTCTVSGGSISGGGYYWSWIRQLPGKGLQWIGCIYDSGTTYYNPSLKSLVTISIDTSKNQFSLKLSSVTAADTAVYYCARGGSLDDFWSATWYFALWGRGTLVTVSS
VL: EIVLTQSPGTLSLSPGERATLSCRASQSVSSNYLAWYQQKPGQAPRLLIYGASSRATGIPDRFSGSGSGTDFTLTISRLEPEDFAFYYCQQYGRSPYTFGPGTKLEIK
B15: ADI-41306 (antibody, V domains shown)
VH: QVQLVESGPRLVKPSQTLSLTCTVSGGSIYRGDYDWNWIRQPPGKGLEWIGYISYTGNTHYNSSLKSRLSISADTSGTHFSLKLSSVTAADTAIYYCARDVGYGGNAAHYYYYAMDVWGQGTTVTVSS
VL: ETTLTQSPATLSLSPGERATLSCRASQSVGSSLAWYQQKVGQAPRLLIYDASSRVTGIPARFSGSGSGTDFTLTISSLEPGDFAVYYCQQRSNSLTFGGGTKVEIK
B16: ADI-41307 (antibody, V domains shown)
VH: QVQLVESGGGLVKPGGSLRLSCAASGFPLSPYALNWVRQAPGKGLEWVSSITSSSAYIYYADSVKGRFTVSRDNPTNSLYLQMNSLRAEDTAVYYCARTIPQHYYDNNGDYYNYGMDVWGQGTTVTVSS
VL: DIVLTQSPATLSVSPGQRITLSCRASQTVRSNLAWYQQKPGQPPRLLIYGASTRATGVPARFTGSGSGTEFTLTITSLQSDDFAVYYCHQYNDRPLTFGPGTKVEIK
B17: ADI-41308 (antibody, V domains shown)
VH: EVQLVESGPGLVKPSQTLSLTCAISGDSVSSNSAAWNWIRQSPSRGLERMGRTYYRSKWYDDYAVSVKSRIIINPDTSKNQFSLQLNSVTPEDTAVYYCARGISTFGGVIYALEIWGQGTMVTVSS
VL: SYVLTQPASVSGSPGQSITISCTGLTSDVGGYNFVSWYQQHPGKAPKLIIYDVSHRPSGVSNRFSGSESGNTASLTISGLQAEDEAHYYCSSYTRTSIVVFGGGTKLTVL
B18: ADI-41309 (antibody, V domains shown)
VH: EVQLLESGPGLVKPSQTLSLTCTVSGGSISSGDYYWSWVRQPPGKGLEWIGNIYHSGSTYYKPSLKSRVSISLDTSKNQFSLKLSSVTAADTAIYYCARDGGENYVWGTFRFLDVWGQGTTVTVSS
VL: DIRLTQSPGTLSLSPGERATLSCRASQSVSSSYLAWYQQKPGQAPRLLIYGVSSRATGIPDRFSGSGSGTDFTLTINRLEPEDFALYHCQQYGSSPHTFGQGTKVEIK
B19: ADI-41310 (antibody, V domains shown)
VH: QVQLVQSGVEVKKPGESLKISCRGSGYSFYNYWIAWVRQKPGKGLEYMGTIYLDDSDTIYSPSFQGEVTISADKSINTAYLQWNSLKASDTANYYCARQMDFYFDVWGRGTLVTVSS
VL: SYELTQPPSVSVSPGQTARITCSGDPLPRESAYWYQQKPGQAPVVVIFNDIERPLGIPGRFSGSRSGATATLTINGAQAEDEADYYCQSADSRKTFVFGAGTKLTVL
B20: ADI-41311 (antibody, V domains shown)
VH: QVTLKQSGPALVKPTQTLTLTCTFSGFSLSTKRMGVSWIRQPPGKALEWLARIDWDDDKYYSTSLRTRLTISKDTSKNQVVLTMTDMDPVDTATYYCARIQPYTSGGYYSYYFDYWGQGTLVTVSS
VL: DIQVTQSPSSLSASIGDRVTITCRASQTIASYLNWYQQKPGKAPKLLIYIASSLQSGVPSRFSGSGSGTDFTLTISTLQPEDFATYYCQQSYGTPWTFGQGTKVEIK
B21: ADI-41312 (antibody, V domains shown)
VH: QVQLQESGPGLVKPSGTLSLTCAVSGGSISSSNWWNWVRQPPGKGLEWIGEIYHSGRTNYNPSLKSRVSISIDKFKSQFSLNLNSVTAADTAVYYCARDLPGTPYDIVPGYYPGLRRHDAFDIWGQGTMVTVSS
VL: not shown

molecular target: RSV F on RSV-A2 virus (Respiratory syncytial virus (RSV-A2)); experiment: cell-based or functional assay

First: B1
Second: B2
The “Neutralization IC50 (RSV subtype A)” value of the first is lower: 5.85 µg/mL for the first, greater than 25 µg/mL for the second.

B3 and B4 cannot be ordered by “Neutralization IC50 (RSV subtype A)” value: greater than 25 µg/mL for the first, greater than 25 µg/mL for the second.

Going from B5 to B6, the “Neutralization IC50 (RSV subtype A)” value falls from greater than 25 µg/mL to 0.159 µg/mL.

Compared with B7, B8 is higher in “Neutralization IC50 (RSV subtype A)” value: 0.0805 µg/mL for the first, greater than 25 µg/mL for the second.

B9 and B10 cannot be ordered by “Neutralization IC50 (RSV subtype A)” value: greater than 25 µg/mL for the first, greater than 25 µg/mL for the second.

Going from B11 to B12, the “Neutralization IC50 (RSV subtype A)” value rises from 0.006 µg/mL to greater than 25 µg/mL.

B13 and B14 cannot be ordered by “Neutralization IC50 (RSV subtype A)” value: greater than 25 µg/mL for the first, greater than 25 µg/mL for the second.

Going from B15 to B16, the “Neutralization IC50 (RSV subtype A)” value rises from 0.173 µg/mL to greater than 25 µg/mL.

B17 and B18 cannot be ordered by “Neutralization IC50 (RSV subtype A)” value: greater than 25 µg/mL for the first, greater than 25 µg/mL for the second.

B19 and B20 cannot be ordered by “Neutralization IC50 (RSV subtype A)” value: greater than 25 µg/mL for the first, greater than 25 µg/mL for the second.

B21 was tested, and the “Neutralization IC50 (RSV subtype A)” value was greater than 25 µg/mL.

— US20260258115A1 (MAPP BIOPHARMACEUTICAL, published 2026)
